Data taken from PMC5125647, “Multivalent Interactions of Human Primary Amine Oxidase with the V and C2_(2) Domains of Sialic Acid-Binding Immunoglobulin-Like Lectin-9 Regulate Its Binding and Amine Oxidase Activity” (PLoS ONE, 2016).
Substitutions are numbered along the chain they refer to. Numbers in names are those of the source.

T1: human primary amine oxidase (hAOC3) (human, UniProt Q16853 1-763, topaquinone (TPQ) cofactor, modified from Tyr471; N-glycans attached to N137, N232, N294, N592, N618 and N666, with sialic acids)
T1 sequence: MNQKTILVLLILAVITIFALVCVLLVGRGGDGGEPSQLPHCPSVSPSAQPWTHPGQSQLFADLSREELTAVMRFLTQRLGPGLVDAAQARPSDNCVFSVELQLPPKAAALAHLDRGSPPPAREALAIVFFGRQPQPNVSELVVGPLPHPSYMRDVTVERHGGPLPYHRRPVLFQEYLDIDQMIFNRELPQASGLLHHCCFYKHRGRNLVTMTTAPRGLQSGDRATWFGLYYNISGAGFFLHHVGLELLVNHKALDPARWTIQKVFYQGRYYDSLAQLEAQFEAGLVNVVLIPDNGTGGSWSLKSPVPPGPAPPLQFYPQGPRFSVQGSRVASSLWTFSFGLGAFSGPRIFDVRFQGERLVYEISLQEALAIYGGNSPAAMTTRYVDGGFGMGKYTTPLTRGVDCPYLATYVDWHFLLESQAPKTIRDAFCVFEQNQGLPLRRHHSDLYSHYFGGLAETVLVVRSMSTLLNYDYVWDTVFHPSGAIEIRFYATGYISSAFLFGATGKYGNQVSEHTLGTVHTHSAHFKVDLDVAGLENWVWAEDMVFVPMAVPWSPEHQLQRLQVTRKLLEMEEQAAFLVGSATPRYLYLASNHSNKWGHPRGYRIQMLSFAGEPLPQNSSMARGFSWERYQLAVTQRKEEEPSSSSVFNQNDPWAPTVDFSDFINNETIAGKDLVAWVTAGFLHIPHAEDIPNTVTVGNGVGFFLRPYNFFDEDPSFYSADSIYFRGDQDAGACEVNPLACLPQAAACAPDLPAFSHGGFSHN

B1: Siglec-9-EC (extracellular region of sialic acid-binding immunoglobulin-like lectin-9, V-C2_(12); residues 26-348) (domain or fragment, UniProt Q9Y336 26-348, looked up)
chain: QSSVTVQEGLCVHVPCSFSYPSHGWIYPGPVVHGYWFREGANTDQDAPVATNNPARAVWEETRDRFHLLGDPHTKNCTLSIRDARRSDAGRYFFRMEKGSIKWNYKHHRLSVNVTALTHRPNILIPGTLESGCPQNLTCSVPWACEQGTPPMISWIGTSVSPLDPSTTRSSVLTLIPQPQDHGTSLTCQVTFPGASVTTNKTVHLNVSYPPQNLTMTVFQGDGTVSTVLGNGSSLSLPEGQSLRLVCAVDAVDSNPPARLSLSWRGLTLCPSQPSNPGVLELPWVHLRDAAEFTCRAQNPLGSQQVYLNVSLQSKATSGVTQG
notes: Siglec-9, UniProtKB Q9Y336, extracellular region with the V, C2_(1) and C2_(2) domains, residues 26-348; The construct has a secretion signal for insect cell production before the tags; The His tag is called cleavable, but no cleavage is described; Dimer by SEC retention (85 kDa); Insect-cell glycosylation; eight putative N-glycosylation sites; Cloning details are in S1 Text; also called WT; …
B2: Siglec-9-EC/R290S (domain or fragment, UniProt Q9Y336 26-348, looked up)
chain: B1 chain with R265S
notes: Siglec-9, UniProtKB Q9Y336, extracellular region, residues 26-348, with R290S in the C2_(2) domain; Made from the Siglec-9-EC production vector by site-directed mutagenesis; also called R290S mutant; source: baculovirus, Tn5 (High Five) insect cells, secreted into the medium, purified (Ni2+ resin, Superdex 200 gel filtration)
B3: Siglec-9-EC/R284S (domain or fragment, UniProt Q9Y336 26-348, looked up)
chain: B1 chain with R259S
notes: Siglec-9, UniProtKB Q9Y336, extracellular region, residues 26-348, with R284S in the C2_(2) domain; Made from the Siglec-9-EC production vector by site-directed mutagenesis; also called R284S mutant; source: baculovirus, Tn5 (High Five) insect cells, secreted into the medium, purified (Ni2+ resin, Superdex 200 gel filtration)
B4: Siglec-9-ΔV (C2_(12); residues 145-348) (domain or fragment, UniProt Q9Y336 145-348, looked up)
chain: RPNILIPGTLESGCPQNLTCSVPWACEQGTPPMISWIGTSVSPLDPSTTRSSVLTLIPQPQDHGTSLTCQVTFPGASVTTNKTVHLNVSYPPQNLTMTVFQGDGTVSTVLGNGSSLSLPEGQSLRLVCAVDAVDSNPPARLSLSWRGLTLCPSQPSNPGVLELPWVHLRDAAEFTCRAQNPLGSQQVYLNVSLQSKATSGVTQG
notes: Siglec-9, UniProtKB Q9Y336, C2_(1) and C2_(2) domains without the V domain, residues 145-348; The construct has a secretion signal for insect cell production before the tags; also called Siglec-9-EC-ΔV; source: baculovirus, Tn5 (High Five) insect cells, secreted into the medium, purified (Ni2+ resin, Superdex 200 gel filtration)

Experiments:
[1] = molecular target: T1, human primary amine oxidase (hAOC3); experiment: cell-based or functional assay
[2] = molecular target: the molecule itself; experiment: SEC; Superdex 200 10/300 GL, 20 mM HEPES pH 7.4, 150 mM NaCl; size from the retention time against standard proteins
[3] = molecular target: T1, human primary amine oxidase (hAOC3); experiment: SPR; hAOC3 immobilised; five to seven concentrations of Siglec-9-EC, R284S or R290S; kon and koff determined separately for every curve with Biaeval, Kd as their ratio; average without the highest and lowest value; conditions: both partners purified
[4] = molecular target: T1, human primary amine oxidase (hAOC3); experiment: as above; conditions: both partners purified; remark: listed apart in the source
[5] = molecular target: T1, human primary amine oxidase (hAOC3); experiment: SPR; BiacoreX; hAOC3 amine-coupled to a CM5 chip (10 000 RU); 20 ul of 0.3-31 uM Siglec-9-EC injected at 25 C; running buffer HBS (10 mM HEPES, 150 mM NaCl, pH 7.4) with 0.005% Surfactant-P20; apparent Kd from responses at the end of injection against concentration, steady state and one-to-one model assumed, non-linear regression (GraphPad); two protein preparations; conditions: both partners purified
[6] = molecular target: T1, human primary amine oxidase (hAOC3); experiment: SPR; hAOC3 immobilised; one concentration (0.5 uM) of each Siglec-9 protein; relative binding normalised to the first control condition; conditions: both partners purified

Binder	amine oxidase activity of intact CHO-hAOC3 cells on [7-14C]benzylamine with 5 uM Siglec-9-EC added before the substrate (a similar increase with 1 uM in Fig 7C) [1]	stoichiometry N [2]	maximal binding at the highest concentration [3]	Kd [4]	koff [4]	kon [4]	Kd [5]	binding relative to WT [6]
B1	2 fold	2	3120 RU	1.04 ± 0.87 µM	0.00691 s⁻¹	11200 M⁻¹ s⁻¹	4.6 ± 0.93 µM	–
B2	–	–	1760 RU	0.53 ± 0.5 µM	0.0031 s⁻¹	11000 M⁻¹ s⁻¹	–	–
B3	–	–	1130 RU	0.14 µM	0.00373 s⁻¹	32100 M⁻¹ s⁻¹	–	–
B4	–	–	–	–	–	–	–	< 10%
